Laboratory results published in publication PMC8225329, “Molecular and Mechanistic Characterization of PddB, the First PLP-Independent 2,4-Diaminobutyric Acid Racemase Discovered in an Actinobacterial D-Amino Acid Homopolymer Biosynthesis” (Frontiers in Microbiology, 2021).

Legend:
[1] = substrate: NCC[C@@H](N)C(=O)O; test: initial-velocity racemase assay, FDLA (Marfey) LC-MS; Lineweaver-Burk; format: biochemical, Streptoalloteichus hindustanus; details: D to L direction, no cofactor, 100 mM TAPS-NaOH pH 8.5, 30°C
Text: (§1) initial-velocity racemase assay, FDLA (Marfey) LC-MS; Lineweaver-Burk on PddB

[2] = substrate: NCC[C@H](N)C(=O)O; test: as above; format: biochemical, Streptoalloteichus hindustanus; details: L to D direction, no cofactor, 100 mM TAPS-NaOH pH 8.5, 30°C
Text: as §1

B1: PddB (Streptoalloteichus hindustanus) (protein)
chain: MSDQHNQVLDSELTAFRERVVEGVRFDTLRFCIMHGDGNVIMIVDERLSGLAAESVTSTLARELCQSFTVPKVDGVAFVRPTVSPLRMTYFERDGTHAQMCGNALRCLTRYGVERGYLSTEDSVETDDGVKRVSFVDGEARAALGPGREYQQVRDNWYFAFSGLPHLVVVMDDLDAFNAVNVRVDGAKLAHDEELCRQLNHPEGLHVNYLHRGEDHIAIRTFEVGVEDETKACGTGVAATGYIAHRAWGMPYPLRVRVPGGVMTAEDGEHGLTISGVTGYLFTEDETPVANVFQRSVL
notes: full length, C-terminal His6 tag, pET-21b(+), E. coli Rosetta 2 (DE3), Ni-NTA; 33 kDa; monomer; C-terminal domain given as 163-295
B1 gave a Km [1] of 6.1 ± 1.0 mM, a Vmax [1] of 136 µmol/min/mg and a Vmax/Km [1] of 22200 µL/min/mg. It also gave a kcat [1] of 75 ± 5 s⁻¹, a kcat/Km [1] of 12200 M⁻¹ s⁻¹ and a Km [2] of 10.1 ± 1.9 mM. It also gave a Vmax [2] of 210 µmol/min/mg, a Vmax/Km [2] of 20800 µL/min/mg and a kcat [2] of 116 ± 12 s⁻¹. It also gave a kcat/Km [2] of 11400 M⁻¹ s⁻¹.
